Experimental data published in US9909146B2, “Production of alkenes by enzymatic decarboxylation of 3-hydroxyalkanoic acids” (priority 2008, dated 2018).

Columns and labels:
[1] = molecular target: T1, enzyme SEQ ID NO: 6 (MDP decarboxylase) (Picrophilus torridus, UniProt Q6KZB1); experiment: Effect of ATP co-substrate and Mg2+ cofactor on IBN production by enzyme SEQ ID NO: 6; assay type: biochemical; conditions: 1 mg/ml enzyme, 72 h at 30° C.
T1 construct: 6-Histidine tag (N); made in house; host or cells: E. coli BL21(DE3)
T1 sequence (Q6KZB1 1-324): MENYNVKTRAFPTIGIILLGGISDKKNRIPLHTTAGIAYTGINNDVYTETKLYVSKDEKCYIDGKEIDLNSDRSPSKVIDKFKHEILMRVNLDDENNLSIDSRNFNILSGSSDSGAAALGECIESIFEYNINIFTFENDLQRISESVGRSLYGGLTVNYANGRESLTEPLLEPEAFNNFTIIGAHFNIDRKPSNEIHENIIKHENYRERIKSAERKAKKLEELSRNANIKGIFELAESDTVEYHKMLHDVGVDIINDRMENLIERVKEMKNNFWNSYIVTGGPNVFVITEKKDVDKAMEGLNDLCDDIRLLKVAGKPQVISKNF
Method: Effect of ATP Co-Substrate
(§1) 200 mM HIV (to be specified)
(§2) Incubation 72 h at 30° C.
Other molecules, and in particular those containing a phosphoanhydride bond, could also be efficient co-substrates for the enzyme.
Other ions, and in particular other divalent ions, could be used as cofactor in place of or in addition to Mg^2+ ions.

[2] = molecular target: T1, enzyme SEQ ID NO: 6 (MDP decarboxylase); experiment: Substrate range test, Km of enzyme SEQ ID NO: 6 for HIV; assay type: biochemical; conditions: previously described conditions, incubation at 50° C., read-out: Km of the enzyme / affinity for HIV
Method: FIG. 13: IBN production according to concentration of HIV substrate.
A substrate range was tested in the previously described conditions, with incubation at 50° C. The Km of the enzyme is approximately 40 mM HIV.

[3] = molecular target: T2, MDP decarboxylase of Saccharomyces cerevisiae (Saccharomyces cerevisiae, UniProt P32377); experiment: Activity of protein extract (S. cerevisiae MDP decarboxylase) towards 3-hydroxy-3-methylbutyrate, with or without cofactor; assay type: biochemical
T2 construct: made in house; host or cells: E. coli BL21
T2 sequence (P32377 1-396): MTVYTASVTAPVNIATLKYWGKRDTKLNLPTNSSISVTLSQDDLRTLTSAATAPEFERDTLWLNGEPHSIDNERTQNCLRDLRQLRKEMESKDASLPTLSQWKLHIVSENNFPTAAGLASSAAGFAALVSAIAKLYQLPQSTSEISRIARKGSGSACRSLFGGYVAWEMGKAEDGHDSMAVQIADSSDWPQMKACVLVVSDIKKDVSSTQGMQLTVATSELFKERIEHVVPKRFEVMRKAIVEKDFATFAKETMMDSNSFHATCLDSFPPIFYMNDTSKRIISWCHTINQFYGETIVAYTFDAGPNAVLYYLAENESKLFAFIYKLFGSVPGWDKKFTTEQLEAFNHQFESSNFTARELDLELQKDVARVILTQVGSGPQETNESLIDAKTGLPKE
Method: The gene encoding MDP decarboxylase of Saccharomyces cerevisiae is synthesized from overlapping oligonucleotides and cloned in a pET plasmid (Novagen) allowing expression in bacteria. Said plasmid is then transformed by electroporation into bacterial strain BL21 (Invitrogen). The bacteria are streaked on a Petri dish containing ampicillin and incubated at 37° C. The next day, a bacterial colony is randomly selected and used to inoculate 50 ml of LB medium containing ampicillin. The culture is incubated for 24 h while shaking, after which the culture is centrifuged, the bacteria lysed by sonication, and a total protein extract prepared. An aliquot of the extract is loaded on an electrophoresis gel together with a protein extract from the same strain which has not been transformed, and with molecular weight markers. […]
Vials are sealed with a septum and crimped. […] After incubation, a gas syringe is used to collect the gas present in each vial, and the CO2 concentration in the samples is measured by gas chromatography. […] The presence of isobutylene in the gas sample from vial 6 is then measured by gas chromatography with infrared or flame ionization detection. […]
As in the previous example, isobutylene formation is measured by gas chromatography with infrared or flame ionization detection.

[4] = Screening of a library of 63 MDP decarboxylase family enzymes for activity on HIV; assay type: biochemical; conditions: 200 mM HIV, 10 mM ATP, pH 5.5 or 7.0, 37° C. for 72 h, GC/MS
Source text: A library of 63 genes encoding enzymes from the MDP decarboxylase family was obtained and tested for activity on HIV as substrate.
The genes encoding the mevalonate diphosphate (MDP) decarboxylase family EC 4.1.1.33 were cloned in the pET 25b vector (Novagen) in the case of eukaryotic genes and pET 22b (Novagen) for genes of prokaryotic origin, with a 6-Histidine tag at the N-terminal end immediately after the methionine initiation codon. Competent E. coli BL21(DE3) cells (Novagen) were transformed with these vectors by heat shock. The cells were grown with shaking (160 rpm) at 30° C. in TB medium containing 0.5 M sorbitol, 5 mM betain, 100 μg/ml ampicillin until reaching an OD at 600 nm comprised between 0.8 and 1. Isopropyl-B-D-thiogalactopyranoside (IPTG) was then added to a final concentration of 1 mM and protein expression was continued at 20° C. overnight (approximately 16 h). The cells were collected by centrifugation at 4° C., 10,000 rpm for 20 min and the pellets were frozen at −80° C. […]
The clarified bacterial lysates were loaded on a PROTINO-1000 Ni-IDA column (Macherey-Nagel) allowing adsorption of 6-His tag proteins. […] Protein was quantified by the Bradford method. […]
The gas present above the reactions was collected with a syringe equipped with a no-return mechanism. The gas sample was analyzed by gas chromatography (GC) coupled with mass spectrometry (MS). […]

[5] = Conversion of HIV to isobutylene (IBN) by purified enzyme SEQ ID NO: 6, GC measurement; assay type: biochemical, Picrophilus torridus
Method: The recombinant enzyme was purified as described in example 4.
The activity of the isolated enzyme was confirmed. The reaction was carried out in the following conditions:
After 72 h incubation at 30° C., the signal was measured by GC/MS. In the presence of the enzyme, IBN production was increased here by approximately 2.3-fold over background noise. The background noise observed here is in agreement with the organic chemistry literature, showing that in aqueous solution and at a temperature of around 100° C., 3-hydroxyisovaleric acid slowly decarboxylates to tert-butanol, which is partially dehydrated to isobutylene, following an equilibrium favorable to the formation of tert-butanol (Pressman and Luca, J. Am. Chem. Soc. 1940).
Enzymatic Activity According to Temperature
as §1
Incubation 72 h at different temperatures.
as §2
Optimal conditions were obtained with a pH of 5.5 in 100 mM citrate.
Optimization of Reaction Conditions
Optimum reaction conditions were sought, and the following conditions were retained:
Incubation 48 h at 50° C.

Nc1ncnc2c1ncn2[C@@H]1O[C@H](COP(=O)(O)OP(=O)(O)OP(=O)(O)O)[C@@H](O)[C@H]1O [ATP]
enzyme activity (IBN production) in presence and absence of ATP ([1]; 0 or 10 mM ATP, 100 mM citrate pH 5.5, 200 mM HIV): only observed in the presence

CC(C)(O)CC(=O)O [HIV, 3-hydroxy-3-methylbutyrate]
Km [2]: ~40 mM
reaction of the enzyme preparation (CO2 detected by gas chromatography) ([3]; vial 6, 5 mM ATP, 10 mM MgCl2, 37° C., 4 hours to 3 days): significant reaction

[Mg+2] [Mg^2+]
enzyme activity (IBN production) in presence and absence of Mg2+ ([1]; 0 or 5 mM MgCl2, 100 mM citrate pH 5.5, 10 mM ATP, 200 mM HIV): improved

CCOP(=O)(O)OP(=O)(O)O [ethyl diphosphate, reference compound]
amount of isobutylene produced over time with cofactor ([3]; 10 μl of 10 mg/l ethyl diphosphate added to 3-hydroxy-3-methylbutyrate reaction): markedly higher

B1: Candidate 10: purified decarboxylase enzyme of SEQ ID NO: 6 from Picrophilus torridus, Q6KZB1, N-terminal His tag (protein)
chain: T1 sequence (Q6KZB1 1-324)
modifications: N-terminal His tag
level of isobutylene (IBN) production in library screening [4]: highest levels
IBN production in presence of enzyme over background noise ([5]; 100 mM Tris-HCl, 10 mM MgCl2, 10 mM ATP, 20 mM KCl, pH 6.0, 3 mg/ml enzyme, 72 h at 30° C., GC/MS): approximately 2.3 fold
temperature optimum of enzymatic activity ([5]; 100 mM buffer, 50 mM KCl, 10 mM ATP, 200 mM HIV, 1 mg/ml enzyme, 72 h at different temperatures): approximately 50 °C
optimal pH of enzymatic activity ([5]; 100 mM citrate, 50 mM KCl, 10 mM ATP, 200 mM HIV, 1 mg/ml enzyme, 72 h at 30° C.): 5.5
signal-to-noise ratio (measured in the absence of enzyme) for the conversion yield ([5]; in some conditions, example 5): approximately 100 fold
ratio of the signal over background noise ([5]; optimized: 100 mM citrate, 50 mM KCl, 40 mM ATP, 200 mM HIV, 1 mg/ml enzyme, 48 h at 50° C., GC-FID): approximately 100
